The values that follow come from patent US20100280101, “METHOD OF INHIBITING CANCER CELL PROLIFERATION, PROLIFERATION INHIBITOR AND SCREENING METHOD” (University of Occupational and Environmental Health Japan, published 2010).

The target in series [1] is T1, ZNF143 (UniProt P52747 SEQ:1-638).
T1 sequence: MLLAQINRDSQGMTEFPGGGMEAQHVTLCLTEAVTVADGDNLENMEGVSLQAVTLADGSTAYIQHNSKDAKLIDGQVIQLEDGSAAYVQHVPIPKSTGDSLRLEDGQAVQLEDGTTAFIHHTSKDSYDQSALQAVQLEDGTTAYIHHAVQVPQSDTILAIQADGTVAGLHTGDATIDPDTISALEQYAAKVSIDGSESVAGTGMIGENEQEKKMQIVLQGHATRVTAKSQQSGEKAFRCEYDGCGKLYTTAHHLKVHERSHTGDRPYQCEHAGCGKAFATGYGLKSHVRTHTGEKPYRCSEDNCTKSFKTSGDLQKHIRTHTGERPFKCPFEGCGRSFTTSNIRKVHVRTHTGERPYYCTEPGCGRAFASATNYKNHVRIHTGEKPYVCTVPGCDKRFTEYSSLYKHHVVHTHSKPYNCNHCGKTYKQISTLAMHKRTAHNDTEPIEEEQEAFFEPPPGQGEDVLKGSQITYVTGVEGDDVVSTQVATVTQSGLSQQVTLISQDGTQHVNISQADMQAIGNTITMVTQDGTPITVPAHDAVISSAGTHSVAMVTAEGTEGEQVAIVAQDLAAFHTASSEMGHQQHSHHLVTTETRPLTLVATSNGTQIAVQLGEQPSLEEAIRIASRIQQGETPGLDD
As to the kind of experiment: EMSA; also ChIP; binding retained without 5'-terminal 6 bases.

In series [2] the target is T1, ZNF143. As to the kind of experiment: EMSA; also ChIP. (In general: A gel shift assay detects complexes by their altered migration in electrophoresis.)

B1: CCNA2 promoter site (dsDNA)
DNA 1: CAGGCACTGCCCAGCGTGGCGAGCC
DNA 2: GGCTCGCCACGCTGGGCAGTGCCTG
B1: in the series with ZNF143 [1], the binding result is on record as “binds”.

B2: UHRF1 promoter site (dsDNA)
DNA 1: ACTCCCAGGATGCCCTTCC
DNA 2: GGAAGGGCATCCTGGGAGT
With B2, the binding result in the series with ZNF143 [2] is listed as “binds”.

B3: PLK1 promoter site 1 (dsDNA)
DNA 1: CAGGGCGCTCCCATGGTGCCGCGCG
DNA 2: CGCGCGGCACCATGGGAGCGCCCTG
As for B3, the binding result in the series with ZNF143 [1] was “binds”.

B4: GTSE1 promoter site (dsDNA)
DNA 1: ACTACAATACCCAGGACGCACCCAG
DNA 2: CTGGGTGCGTCCTGGGTATTGTAGT
Regarding B4, the binding result in the series with ZNF143 [1] was “binds”.

B5: CCNE2 promoter site (dsDNA)
DNA 1: CTTCCCACCCGGCCAGGTC
DNA 2: GACCTGGCCGGGTGGGAAG
Take B5: the binding result with ZNF143 [2] was “binds”.

B6: SPBC25 promoter site (dsDNA)
DNA 1: ACTACGAATCCCAGAATGCCCTGTT
DNA 2: AACAGGGCATTCTGGGATTCGTAGT
Take B6: the binding result with ZNF143 [1] is on record as “binds”.

B7: RFC4 promoter site (dsDNA)
DNA 1: CCAGCCTAGCCCACTGTGCATGAAG
DNA 2: CTTCATGCACAGTGGGCTAGGCTGG
On to B7, for which, in the series with ZNF143 [1], the binding result is “binds”.

B8: CDKN2C promoter site (dsDNA)
DNA 1: ATCCCCAAAATCCAAGCCA
DNA 2: TGGCTTGGATTTTGGGGAT
B8: the binding result with ZNF143 [2] is “binds”.

B9: MCM4 promoter site 1 (dsDNA)
DNA 1: GTACCCACCCAGCACCGCG
DNA 2: CGCGGTGCTGGGTGGGTAC
With B9, the binding result with ZNF143 [2] is recorded as “binds”.

B10: CDCA8 promoter site 2 (dsDNA)
DNA 1: CCCGCCCTCCCCACCAACCCACCCG
DNA 2: CGGGTGGGTTGGTGGGGAGGGCGGG
As to B10, the binding result in the series with ZNF143 [1] is “binds”.

B11: ESPL1 promoter site 2 (dsDNA)
DNA 1: ACTCCCAGCGTGCCGCGCG
DNA 2: CGCGCGGCACGCTGGGAGT
Turning to B11, the binding result with ZNF143 [2] is “binds”.

B12: CDT1 promoter site 1 (dsDNA)
DNA 1: CCCTTCCCTCCCCCCGTGCTCTGCC
DNA 2: GGCAGAGCACGGGGGGAGGGAAGGG
Regarding B12, in the series with ZNF143 [1], the binding result is given as “binds”.

B13: CDC6 promoter site (dsDNA)
DNA 1: ACTACGCCTCCCAGCGTGCTTTGCG
DNA 2: CGCAAAGCACGCTGGGAGGCGTAGT
As for B13, in the series with ZNF143 [1], the binding result is reported as “binds”.

B14: CDT1 promoter site 2 (dsDNA)
DNA 1: CCTCCCCCCGTGCTCTGCC
DNA 2: GGCAGAGCACGGGGGGAGG
On to B14, for which the binding result with ZNF143 [2] is recorded as “binds”.

B15: AURKB promoter site (dsDNA)
DNA 1: CCTCGGCTTCCCAAAATGCTGGGAT
DNA 2: ATCCCAGCATTTTGGGAAGCCGAGG
On to B15, for which, in the series with ZNF143 [1], the binding result is “binds”.

B16: BUB1 promoter site (dsDNA)
DNA 1: TCTCCCCACCTGCCTCCCG
DNA 2: CGGGAGGCAGGTGGGGAGA
Turning to B16, the binding result with ZNF143 [2] was “binds”.

B17: RFC2 promoter site (dsDNA)
DNA 1: GGTGGAATTCCCATCTTGCAGCCGA
DNA 2: TCGGCTGCAAGATGGGAATTCCACC
As to B17, in the series with ZNF143 [1], the binding result is “binds”.

B18: PLK1 promoter site 2 (dsDNA)
DNA 1: GCTCCCATGGTGCCGCGCG
DNA 2: CGCGCGGCACCATGGGAGC
As to B18, in the series with ZNF143 [2], the binding result is listed as “binds”.

B19: MCM4 promoter site 2 (dsDNA)
DNA 1: TTTCCCGGGGACCCCTGCG
DNA 2: CGCAGGGGTCCCCGGGAAA
In the case of B19, the binding result in the series with ZNF143 [2] is “binds”.

B20: ZNF367 (CDC14B) promoter site (dsDNA)
DNA 1: CGGGTCCTTCCCACCTCGCCATTGG
DNA 2: CCAATGGCGAGGTGGGAAGGACCCG
In the case of B20, the binding result with ZNF143 [1] is recorded as “binds”.

B21: CCNF promoter site (dsDNA)
DNA 1: ACCCCCAGCTTGCACGGCC
DNA 2: GGCCGTGCAAGCTGGGGGT
Regarding B21, the binding result with ZNF143 [2] is listed as “binds”.

B22: CDC2L6 promoter site 1 (dsDNA)
DNA 1: AATACAGCTCCCAGGTTACCTCGGG
DNA 2: CCCGAGGTAACCTGGGAGCTGTATT
Consider B22, for which the binding result in the series with ZNF143 [1] is listed as “binds”.

B23: CDCA4 promoter site (dsDNA)
DNA 1: GCTCCCAGGTCTCCGCGCG
DNA 2: CGCGCGGAGACCTGGGAGC
In the case of B23, the binding result in the series with ZNF143 [2] is on record as “binds”.

B24: PFS2 promoter site (dsDNA)
DNA 1: TCTCGACTTCCCAAAGTGCTGGGAT
DNA 2: ATCCCAGCACTTTGGGAAGTCGAGA
As to B24, the binding result with ZNF143 [1] was “binds”.

B25: ESPL1 promoter site 1 (dsDNA)
DNA 1: TTACCCGCCGCGCTGCGCG
DNA 2: CGCGCAGCGCGGCGGGTAA
In the case of B25, in the series with ZNF143 [2], the binding result is “binds”.

B26: CDCA5 promoter site (dsDNA)
DNA 1: TGCGCCTCTCCCTTCAGCCCCGGCC
DNA 2: GGCCGGGGCTGAAGGGAGAGGCGCA
As for B26, the binding result with ZNF143 [1] is recorded as “binds”.

B27: WEE1 promoter site (dsDNA)
DNA 1: TTAATCTGTCCCTTAATGCACTTAC
DNA 2: GTAAGTGCATTAAGGGACAGATTAA
As for B27, the binding result with ZNF143 [1] is listed as “binds”.

B28: MCM3 promoter site (dsDNA)
DNA 1: ACTCCCAGAACGCAATGCC
DNA 2: GGCATTGCGTTCTGGGAGT
Take B28: the binding result with ZNF143 [2] is given as “binds”.

B29: MCM2 promoter site (dsDNA)
DNA 1: CCTCGGCTTCCCAAAGTGCTGGGAT
DNA 2: ATCCCAGCACTTTGGGAAGCCGAGG
Take B29: the binding result with ZNF143 [1] is given as “binds”.

B30: CDC2L6 promoter site 2 (dsDNA)
DNA 1: ACTTCATTTCCCAGGAGCCTCCGCG
DNA 2: CGCGGAGGCTCCTGGGAAATGAAGT
With B30, in the series with ZNF143 [1], the binding result is recorded as “binds”.

B31: CDK2 promoter site (dsDNA)
DNA 1: CATTGCTTTCCCATCCTGCTACTCA
DNA 2: TGAGTAGCAGGATGGGAAAGCAATG
As to B31, in the series with ZNF143 [1], the binding result is “binds”.

B32: BIRC5 (survivin) promoter site (dsDNA)
DNA 1: GCCCCCACCCTCCACTGGG
DNA 2: CCCAGTGGAGGGTGGGGGC
As for B32, in the series with ZNF143 [2], the binding result was “binds”.

B33: MCM5 promoter site (dsDNA)
DNA 1: GTGCCCATTTTGCATTGGG
DNA 2: CCCAATGCAAAATGGGCAC
Consider B33, for which the binding result with ZNF143 [2] is recorded as “binds”.

B34: CDCA8 promoter site 1 (dsDNA)
DNA 1: ACTACTACTCCCGGCAGGCCTTGTG
DNA 2: CACAAGGCCTGCCGGGAGTAGTAGT
On to B34, for which, in the series with ZNF143 [1], the binding result is on record as “binds”.

B35: CDCA3 promoter site (dsDNA)
DNA 1: GACGTAGTTCCCATAGGCCCTCCAC
DNA 2: GTGGAGGGCCTATGGGAACTACGTC
Take B35: the binding result with ZNF143 [1] was “binds”.
